# Target: Taxol-stabilized microtubules prepared from pure bovine tubulin (bovine) (UniProt Q6B856)
# Assay: co-sedimentation
substance,measurement,value
GST-DmINCENP (full-length Drosophila inner centromere protein fused to GST) (natural protein),percent of the added protein that cosediments,64%

# — paper PMC2192373
